Results published in patent US20060292074A1 (SCHERING AKTIENGESELLSCHAFT, published 2006).

How the values were obtained:
[1] = target: T1, native tomoregulin (TR) on TR-expressing cells (PC3-TR, CHO-TR) (human) (UniProt Q9UIK5); assay: live cell ICELISA on PC3-TR cells; based on total scFv concentration
T1 sequence (looked up): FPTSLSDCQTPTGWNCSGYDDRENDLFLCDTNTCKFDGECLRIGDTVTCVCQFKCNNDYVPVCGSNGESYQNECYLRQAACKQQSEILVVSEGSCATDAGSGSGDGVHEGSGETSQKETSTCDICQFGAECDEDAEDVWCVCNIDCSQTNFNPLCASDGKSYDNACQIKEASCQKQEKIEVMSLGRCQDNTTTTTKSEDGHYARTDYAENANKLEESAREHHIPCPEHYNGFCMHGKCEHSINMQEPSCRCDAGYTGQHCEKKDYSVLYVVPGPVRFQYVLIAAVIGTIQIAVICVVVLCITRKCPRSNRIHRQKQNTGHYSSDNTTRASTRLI

[2] = target: T2, recombinant TR protein (extracellular domain of TR, amino acids 1-302, C-terminal 6xHis tag) (human) (UniProt Q9UIK5); assay: ICELISA on recombinant TR, scFv pre-incubated with anti-E-tag antibody; based on total scFv
T2 sequence (chain, glycosylated): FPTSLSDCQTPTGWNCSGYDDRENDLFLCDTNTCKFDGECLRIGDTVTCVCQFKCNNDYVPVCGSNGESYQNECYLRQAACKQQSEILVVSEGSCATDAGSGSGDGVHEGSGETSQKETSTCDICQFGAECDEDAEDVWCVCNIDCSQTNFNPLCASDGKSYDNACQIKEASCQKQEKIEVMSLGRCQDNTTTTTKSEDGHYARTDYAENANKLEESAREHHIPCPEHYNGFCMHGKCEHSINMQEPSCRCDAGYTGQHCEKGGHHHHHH

[3] = target: T2, recombinant TR protein (extracellular domain of TR, amino acids 1-302, C-terminal 6xHis tag) (human); assay: ICELISA against direct ELISA on recombinant TR
[4] = target: T3, recombinant TR protein (extracellular domain of TR, amino acids 1-302, C-terminal 6xHis tag) (human, UniProt Q9UIK5 41-302, glycosylated); assay: direct ELISA on recombinant TR, monomeric scFv
T3 construct: range 41-302; Secreted from baculovirus-infected High Five cells, purified by Ni chelate and size exclusion chromatography; also called 6×his-tagged recombinant TR; recombinant protein
T3 sequence: T2 sequence (chain, glycosylated)

[5] = target: T4, native tomoregulin (TR) on TR-expressing cells (PC3-TR, CHO-TR) (human, UniProt Q9UIK5 41-374); assay: live cell ELISA on PC3-TR cells
T4 construct: whole, on cells; also called native TR; native receptor
T4 sequence (looked up): T1 sequence (looked up)

[6] = target: T4, native tomoregulin (TR) on …; assay: FACS on PC3-TR cells
Protocol: (§1) Cells were detached with Cell Dissociation Buffer (GIBCO Invitrogen, Carlsbad, Calif.) and collected by centrifugation of 3000 rpm at 4° C. for 5 min. 2×10⁵ cells in 100 μl PBS buffer were incubated for 1 h at 4° C. with anti-TR antibodies at a range of concentrations. Excess antibody was washed away with 1 ml PBS followed by centrifugation, and cells were resuspended and incubated for 45 min at 4° C. in PBS 100 μl containing anti-mouse IgG-FITC (10 μg/mL, Vector Labs Inc.) as the second antibody. Excess antibody was washed away with 1 mL PBS and by centrifugation. Cells were resuspended in 200 μL PBS containing 5 μL propidium iodide (1 μg/ml). Fluorescence intensity was measured on a FACS Calibur (Becton Dickinson). Experiments were performed in triplicate.
(§2) Binding of AT-19 IgG to PC3 cells expressing TR was compared to mouse anti-TR IgG 2H8 by FACS. 2H8 is a murine IgG1 monoclonal antibody that reacts with the follistatin domains of the extra-cellular region of human TR protein (Afar et al., Mol. Cancer Ther., 3:921, 2004). It is used throughout as a positive control antibody.

[7] = target: T4, native tomoregulin (TR) on …; assay: FACS on PC3-TR cells, IgG against scFv monomer; not exactly quantified
Protocol: as §1, §2

B1: AT-19 scFv immune complex (AT-19 scFv dimerized by pre-incubation with mouse anti-E-tag monoclonal IgG) (protein, part only; not given: E-tag and anti-E-tag IgG, not shown: small tags and cut ends)
scFv, part: QVQLVQSGGGLVQPGGSLRLSCAASGFTFSNYAMSWVRQAPGKGLEWVSAISGNGGATYYADSMKGRFTISRDNSKNTLSLQLNSLRVEDTAVYYCAKSLIWGYDRGVDYWGQGTLVTVSAGGGGSGGGGSGGGGSGAPHVILTQPPSASGTPGQRVTISCSGGASNIGTNSVNWYQQLPGTAPKLLLYTNDHRPSGVPDRFSGKSGTSASLAISGLQAEDEGDYYCAAWDDTMNGHVVFGGGTKLTVLG
Q: With B1 as the binder, how does the EC50 [1] read?
A: The EC50 was 8.5 nM.

Q: What about the EC50 [2] of the same binder?
A: Its EC50 is 1.3 nM.

Q: And the fold improvement of EC50 against monomeric AT-19 scFv [3]?
A: The fold improvement of EC50 against monomeric AT-19 scFv was > 20 fold.

B2: AT-19 scFv (monomeric, monovalent single-chain anti-TR antibody) (scFv)
scFv: B1 scFv, part
notes: also called monovalent AT-19 scFv; monomeric AT-19 scFv; not shown: E-tag from the pZ603 (pCANTAB5E-based) vector
Q: With B2 as the binder, how does the EC50 [4] read?
A: Its EC50 is 22 nM.

B3: AT-19 IgG (fully human IgG1 format of AT-19) (antibody, V domains shown)
VH: QVQLVQSGGGLVQPGGSLRLSCAASGFTFSNYAMSWVRQAPGKGLEWVSAISGNGGATYYADSMKGRFTISRDNSKNTLSLQLNSLRVEDTAVYYCAKSLIWGYDRGVDYWGQGTLVTVSA
VL: HVILTQPPSASGTPGQRVTISCSGGASNIGTNSVNWYQQLPGTAPKLLLYTNDHRPSGVPDRFSGKSGTSASLAISGLQAEDEGDYYCAAWDDTMNGHVVFGGGTKLTVLG
notes: also called fully human AT-19 IgG
Q: Which results are given for B3?
A: EC50 [5]: 0.44 nM; EC50 [6]: 0.17 nM; avidity effect (fold) against the scFv monomer [7]: > 20 fold
